Experimental data: US20240199740A1 (Ablynx, published 2024)

Columns and labels:
[1] = molecular target: T1, human CD123 expressed on cells (human, UniProt P26951 19-378); assay: flow cytometry, KG1a cells
T1 construct: the cell line is named under assay; also called huCD123; IL-3Rα

[2] = molecular target: T1, human CD123 expressed on cells; assay: flow cytometry, MOLM-13 cells
[3] = molecular target: T2, cynomolgus CD123 expressed on HEK Flp-In cells (cynomolgus); assay: flow cytometry, HEK Flp-In cyCD123 transfected cells
T2 construct: EHH61867.1; also called cyCD123; cyno CD123
T2 chain: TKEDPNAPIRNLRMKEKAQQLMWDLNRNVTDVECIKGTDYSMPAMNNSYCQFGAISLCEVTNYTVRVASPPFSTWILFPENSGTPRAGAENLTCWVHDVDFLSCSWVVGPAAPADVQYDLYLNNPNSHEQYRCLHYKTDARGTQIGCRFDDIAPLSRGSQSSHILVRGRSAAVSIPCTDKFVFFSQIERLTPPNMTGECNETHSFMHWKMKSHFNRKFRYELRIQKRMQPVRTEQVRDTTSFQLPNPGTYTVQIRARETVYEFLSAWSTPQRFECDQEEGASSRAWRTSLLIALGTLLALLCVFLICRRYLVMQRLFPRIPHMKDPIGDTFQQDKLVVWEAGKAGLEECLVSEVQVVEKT

[4] = molecular target: T1, human CD123 expressed on cells; assay: flow cytometry competition, MOLM-13 cells, competitor A0110056A10-Alexa647 (0.7 nM)
[5] = molecular target: T1, human CD123 expressed on cells; assay: flow cytometry, CHO Flp-In huCD123 transfected cells
[6] = molecular target: T3, recombinant human CD123 protein (R&D Systems, 301-R3/CF) (human, UniProt P26951 19-305); assay: SPR (ProteOn XPR36), CD123 immobilized
T3 construct: Bought recombinant His-tagged extracellular domain of human CD123; also called recombinant CD123; in house biotinylated-CD123 recombinant protein; not shown: His tag of the bought protein
T3 sequence: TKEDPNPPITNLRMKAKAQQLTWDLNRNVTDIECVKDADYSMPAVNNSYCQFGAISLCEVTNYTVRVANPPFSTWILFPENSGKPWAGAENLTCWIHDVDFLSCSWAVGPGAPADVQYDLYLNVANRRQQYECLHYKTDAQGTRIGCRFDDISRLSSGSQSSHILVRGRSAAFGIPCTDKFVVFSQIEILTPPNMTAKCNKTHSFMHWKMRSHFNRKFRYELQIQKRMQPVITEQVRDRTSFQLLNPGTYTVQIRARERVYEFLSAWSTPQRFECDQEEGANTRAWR

[7] = molecular target: T1, human CD123 expressed on cells; assay: flow cytometry competition, MOLM-13 cells, competitor APC-labelled antibody 7G3
[8] = molecular target: T3, recombinant human CD123 protein (R&D …); assay: competition ELISA, coated antibody 7G3 as competitor, 4 nM biotinylated recombinant CD123
[9] = molecular target: T1, human CD123 expressed on cells; assay: flow cytometry competition, CHO Flp-In huCD123 cells, competitor A0110056A10-Alexa647 (0.9 nM)
[10] = molecular target: T1, human CD123 expressed on cells; assay: flow cytometry, Alexa647-labelled Nanobody, MOLM-13 cells
[11] = molecular target: T1, human CD123 expressed on cells; assay: flow cytometry, Alexa647-labelled Nanobody, CHO Flp-In human CD123 cells
[12] = molecular target: T1, human CD123 expressed on cells; assay: as above; remark: listed apart in the source
[13] = molecular target: T2, cynomolgus CD123 expressed on HEK …; assay: flow cytometry, Alexa647-labelled Nanobody, HEK Flp-In cyCD123 transfected cells
[14] = molecular target: T1, human CD123 expressed on cells; assay: flow cytometry, Alexa647-labelled Nanobody, CHO Flp-In huCD123 transfected cells
[15] = molecular target: T2, cynomolgus CD123 expressed on HEK …; assay: flow cytometry, Alexa647-labelled Nanobody, HEK Flp-In cynomolgus CD123 cells
[16] = molecular target: T1, human CD123 expressed on cells; assay: flow cytometry competition, CHO Flp-In human CD123 cells, competitor A0110056A10-Alexa647 (0.5 nM)
[17] = molecular target: T1, human CD123 expressed on cells; assay: flow cytometry, Alexa647-labelled Nanobody, MOLM-13 cells; remark: listed apart in the source
[18] = molecular target: T2, cynomolgus CD123 expressed on HEK …; assay: flow cytometry competition, HEK Flp-In cyCD123 cells, competitor A0110056A10-Alexa647 (0.9 nM)
[19] = molecular target: T1, human CD123 expressed on cells; assay: flow cytometry competition, MOLM-13 cells, competitor A0110056A10-Alexa647 (0.4 nM)
[20] = molecular target: T1, human CD123 expressed on cells; assay: flow cytometry competition, CHO Flp-In human CD123 cells, competitor APC-labelled antibody 7G3

B1: A0110055F03 (VHH)
VHH: EVQLVESGGGLVQAGGPLRLSCAASGRTFSSYVMGWFRQAPGKEREFVAAIYWSNGKTQYTDSVKGRFTISGDNAKNTVYLQMNSLNPEDTAVYYCVADKDETGFRTLPIAYDYWGQGTQVTVSS
notes: Monovalent anti-CD123 Nanobody; also called A0110PMP055F03; A011005F03; not shown: C-terminal triple Flag, His6 tag
- EC50 [1]: > 100 nM
- EC50 [2]: > 100 nM
- EC50 [3]: 2.53 nM
- IC50 [4]: > 100 nM
- EC50 [5]: 5.94 nM
- Kd [6]: 160 nM
- koff [6]: 0.0039 s⁻¹
- kon [6]: 25000 M⁻¹ s⁻¹
- IC50 [7]: 480 nM

B2: A0110056A10 (VHH)
VHH: EVQLVKSGGGLVQAGGSLRLSCAASGITSKINDMGWYRQTPGNYREWVASITATGTTNYRDSVKGRFTISRDNAKSTVYLQMNSLKPEDTTVYYCNTFPPISNFWGQGTLVTVSS
notes: Monovalent anti-CD123 Nanobody; also called A0110PMP056A10; A0110056A10-Alexa647; not shown: C-terminal triple Flag, His6 tag
- EC50 [1]: 0.5 nM
- EC50 [2]: 0.63 nM
- IC50 [8]: 3.1 nM
- IC50 [9]: 1.9 nM
- EC50 (read off the curve) [10]: ~0.5 nM
- EC50 (read off the curve) [11]: ~1 nM
- EC50 (read off the curve) [12]: ~3 nM
- EC50 [13]: 2.48 nM
- IC50 [4]: 1.4 nM
- EC50 [14]: 0.974 nM
- EC50 (read off the curve) [15]: ~3 nM
- IC50 [16]: 6.7 nM
- EC50 (read off the curve) [17]: ~0.7 nM
- Kd [6]: 1.5 nM
- koff [6]: 0.00079 s⁻¹
- kon [6]: 530000 M⁻¹ s⁻¹
- IC50 [7]: 1.1 nM
- IC50 [18]: 7 nM
- IC50 [19]: 1.1 nM
- IC50 [20]: 6.5 nM
